# Experiments:
# PIN1-IRAK-M interaction = experiment: Co-immunoprecipitation of PIN1 and IRAK-M; format: binding; conditions: HEK293 cells, after IL-33 treatment
# Experimental: Fig. 2 IL-33 induces IRAK-M phosphorylation and binding to PIN1. a GST PIN1 pulldown assay with DC2.4 cell extracts either non-treated or treated with IL-33 (100 ng/ml) or LPS (100ng/ml) for 1 h. […] The cells were washed with fresh medium and treated with 100 ng/ml IL-33 for the indicated times prior to IRAK-M immunoprecipitation. d DC2.4 cells stably expressing IRAK-M were treated with IL-33 and at the indicated time points were subjected to CO-IP using anti-PIN1 antibody and blotted for IRAK-M. e HEK293 cells were transfected with different IRAK-M constructs expressing the N’ terminal domain (aa1-220), the middle portion of the protein (aa220-440) or the C’ terminal domain (aa 440-630), and then treated with IL-33, followed by CO-IP for PIN1. f DC2.4 cells stably expressing IRAK-M were treated with IL-33 and subjected to GST or GST-PIN1 pull-down.
# Cells from one 10-cm dish were homogenized in lysis buffer containing 150 mM NaCl, 1% NP-40, 0.5% deoxycholate, 0.1% SDS, 50 mM Tris-HCl (pH 7.7), 1 mM phenylmethylsulfonyl fluoride (PMSF), 1 mM dithiothreitol, and protease inhibitors. Clarified supernatants were incubated with pre incubated immobilized beads rProtein A agarose beads (RepliGen) premixed with PIN1, GFP or IRAK-M antibody or, as a control, IgG overnight at 4 °C. The beads were washed extensively with lysis buffer before elution in SDS sample buffer.
# IRAK-M = IRAK-M protein stability, cycloheximide chase; format: cell-based
# Experimental: Fig. 4 PIN1 increases IRAK-M protein stabilization. a After IRAK-M and GFP were coexpressed in WT and PIN1 KO MEFs for 24 h, cells were split equally into 5 dishes. 24 h later cells were treated with cyclohexamide and harvested to monitor IRAK-M, GFP and PIN1 levels at the time points indicated. b Quantification of 3 independent experiments as in a. c WT MEFs stably expressing the TET on inducible short hairpin for PIN1 (shPin1) or pLKO as a control, were expressed with IRAK-M, followed by induction with Doxycycline for 18 h prior to the cyclohexamide chase. d Quantification of 3 independent experiments as in c. e BMDCs from WT or PIN1 KO mice were treated with IL-33 and the levels of IRAK-M were monitored at different time points after induction. f Quantification of 3 independent experiments as in e. g PIN1 KO MEFs were expressed with IRAK-M alone or in combination with PIN1 or its mutants W34A or K63A for 24 h, followed by the cyclohexamide chase to assay IRAK-M stability. h Quantification of 3 independent experiments as in g. i IRAK-M or its different mutants; S110A, S110E and P111A were expressed in WT MEFs, followed by the cyclohexamide chase to assay IRAK-M stability. j Quantification of 3 independent experiments as in i. k IRAK-M or its different mutants were stably expressed in DC2.4 cells, followed by the cyclohexamide chase to monitor IRAK-M stability. l Quantification of 3 independent experiments as in k. The data were analyzed by a Student’s two-tailed t test and the values are reported as mean ± standard errors of the means (SEM). *- statistical significance (P < 0.05), **- significance (P < 0.01)
# asthmatic patients = experiment: Segmental allergen (Derp1) challenge in asthmatic patients; format: in vivo, human
# From the text: Fig. 7 IRAK-M expression is elevated in asthmatic human samples after Derp1 segmental allergic challenge. a Representative H&E staining and PAS staining of lung biopsies before and after Derp1 segmental challenge, as well as BALF and brush cytospins before and after treatment stained with Giemsa (n = 4). b Cytospin slides of brushing, total BALF cells, BALF CD15 + and CD205 + cells samples were immune stained for IRAK-M. c Quantification of IRAK-M expression in total BALF cells, BALF CD15 + and CD205 + cells samples as in b using Velocity program. d Total BALF cells were immune stained for PIN1 and pS71PIN1 and quantified using Velocity program e. f RNA was extracted from BALF cellular contents and analyzed for the relative expression of Il6, Csf3, Cxcl2 and Ccl5 by qRT-PCR. The data were analyzed by a Student’s two-tailed t test and the values are reported as mean ± standard errors of the means (SEM). *- statistical significance (P < 0.05), **- significance (P < 0.01). Scale bar = 50 µm
# For human subject study, non-smokers with a history of mild asthma with an FEV1 greater than 70% of predicted, using only intermittent beta-agonists for treatment, who were between the ages of 18 and 55 were recruited to undergo segmental allergen challenge via bronchoscopy. Participants were selected on the basis of both a positive methacholine PC20 < 8 mg/mL and a positive skin prick test to Dermatophagoides pternyssinus (DerP1). A positive intradermal that yielded a reaction at or below the concentration threshold of 0.1 AU/mL following the methods set forth in Parulekar et al., was also required, although only the DerP1 antigen was used.
# After recoding baseline vitals, PO2, FEV1, PEFR, appropriate anesthetic medication was administered. Then, a fiberoptic bronchoscope with bronchoalveolar lavage (BAL) was performed by sequential instillation and removal of 5 aliquots of 50 mL normal saline in the lingula. Brushings and biopsies were taken after the BAL. The bronchoscope was then re-wedged on the contra lateral side (right middle lobe) in a readily identifiable sub-segment. A safety dose (100 × the minimum dose that caused reaction during the intradermal) of 5 mL of allergen in a prefilled syringe was instilled followed by 5 mL of air and the wedge was maintained for 5 minutes. Subject’s safety parameters were assessed after administration of the sub-threshold allergen dose. If the investigator determined the subject had well tolerated the safety dose, full dose of allergen (1000 × the minimum dose that caused reaction during the intradermal) in a pre-filled syringe was administered followed by 5 ml of air and the wedge was maintained for 5 min. Antigen lot to lot consistency was maintained between the participants intradermal skin test and segmental challenge. Participants were monitored for safety until 2 h after the procedure. After allergen challenge, if the subject developed systemic allergic reaction such as diffuse urticaria, angioedema, stridor, hypotension, syncope or any other serious adverse event, subject would be dropped from the study and only be followed up for safety reasons. Participants were not be allowed to leave for home until their condition was stable as assessed by the study physician.
# Pre-bronchoscopy and bronchoscopy eligibility procedures were followed as detailed above prior to 2nd bronchoscopy. Specimens taken were BAL first, followed by brushings, and finally biopsies. These were taken where the segmental allergen challenge was placed (right middle lobe). Drug and post-procedure follow up and monitoring were followed as detailed above.
molecule,measurement,setting,value
"IRAK-M N-terminal domain: N-terminal (aa 1-220) of IRAK-M (protein, UniProt Q8K4B2 1-220, looked up, fragment) MAGRCGARGALSPQLLLFDLPPALLGELCGILDSCDGPLGWRGLAERLSNSWLDVRHIEKYVNQGKSGTRELLWSWAQKNKTIGDLLEVLQDMGHQRAIHLIINYGVSWTPSVQTHHELPFPSFPPEVKHACRENDPGPLEPANVTVDNVLVPEHNEKGTLQKTPISFQSILEGTKHFHKDFLIGEGEIFEVYRVDIRNQAYAVKLFKQEKKMQLKKHWK","PIN1 interaction (CO-IP), IRAK-M constructs",PIN1-IRAK-M interaction,mainly evident
"S110A: IRAK-M mutant, Ser110 substituted to Ala (protein) MAGNCGARGALSAHTLLFDLPPALLGELCAVLDSCDGALGWRGLAERLSSSWLDVRHIEKYVDQGKSGTRELLWSWAQKNKTIGDLLQVLQEMGHRRAIHLITNYGAVLAPSEKSYQEGGFPNILFKETANVTVDNVLIPEHNEKGILLKSSISFQNIIEGTRNFHKDFLIGEGEIFEVYRVEIQNLTYAVKLFKQEKKMQCKKHWKRFLSELEVLLLFHHPNILELAAYFTETEKFCLIYPYMRNGTLFDRLQCVGDTAPLPWHIRIGILIGISKAIHYLHNVQPCSVICGSISSANILLDDQFQPKLTDFAMAHFRSHLEHQSCTINMTSSSSKHLWYMPEEYIRQGKLSIKTDVYSFGIVIMEVLTGCRVVLDDPKHIQLRDLLRELMEKRGLDSCLSFLDKKVPPCPRNFSAKLFCLAGRCAATRAKLRPSMDEVLNTLESTQASLYFAEDPPTSLKSFRCPSPLFLENVPSIPVEDDESQNNNLLPSDEGLRIDRMTQKTPFECSQSEVMFLSLDKKPESKRNEEACNMPSSSCEESWFPKYIVPSQDLRPYKVNIDPSSEAPGHSCRSRPVESSCSSKFSWDEYEQYKKE","PIN1 interaction (CO-IP), IRAK-M constructs",PIN1-IRAK-M interaction,abolished the PIN1-IRAK-M interaction
same,decrease of IRAK-M protein stability,"IRAK-M; mutant IRAK-M, WT MEFs, reproduced in DC2.4 cells",~ 50%
"PIN1: peptidyl-prolyl cis-trans isomerase PIN1 (protein, UniProt Q9QUR7 1-165, looked up) Peptidyl-prolyl cis-trans …: MADEEKLPPGWEKRMSRSSGRVYYFNHITNASQWERPSGGSTVGGSSKNGQGEPAKVRCSHLLVKHSQSRRPSSWRQEKITRSKEEALELINGYIQKIKSGEEDFESLASQFSDCSSAKARGDLGPFSRGQMQKPFEDASFALRTGEMSGPVFTDSGIHIILRTE",increase in IRAK-M half-life,"IRAK-M; PIN1-deficient MEFs (text PIN1 KD, Fig. 4g legend PIN1 KO) co-expressing IRAK-M with PIN1 or mutant",more than 50%
"Derp1: segmental allergen of Dermatophagoides pteronyssinus (protein, UniProt P08176 99-320, looked up) Peptidase 1: TNACSINGNAPAEIDLRQMRTVTPIRMQGGCGSCWAFSGVAATESAYLAYRNQSLDLAEQELVDCASQHGCHGDTIPRGIEYIQHNGVVQESYYRYVAREQSCRRPNAQRFGISNYCQIYPPNVNKIREALAQTHSAIAVIIGIKDLDAFRHYDGRTIIQRDNGYQPNYHAVNIVGYSNAQGVDYWIVRNSWDTNWGDNGYGYFAANIDLMMIEEYPYVVIL","immunological reaction (granulocyte infiltration, tissue remodeling)","asthmatic patients; asthmatic patients, segmental Derp1, n = 4",massive immunological reaction
same,IRAK-M expression in bronchial epithelial cells,"asthmatic patients; biopsies, before and after Derp1 challenge",elevated
same,IRAK-M protein expression in lung brush samples,"asthmatic patients; brush cytospins, after Derp1 challenge",greatly elevated
same,IRAK-M expression in CD15+ and CD205+ BALF cells,"asthmatic patients; sorted eosinophils (CD15+) and dendritic/monocytes (CD205+), after Derp1",highly elevated
same,PIN1 protein expression,"asthmatic patients; total BALF cytospins, Derp1",did not seem to change
same,pS71 PIN1 phosphorylation,"asthmatic patients; total BALF cytospins, Derp1",decrease in pS71 phosphorylation
same,IRAK-M expression in total BALF cells,"asthmatic patients; total BALF, after Derp1 challenge",highly elevated

# Reference: paper PMC5913134, “The IL-33-PIN1-IRAK-M axis is critical for type 2 immunity in IL-33-induced allergic airway inflammation” (Nature Communications, 2018)
